Assay results reported in the MegaScale stability set (Tsuboyama et al. 2023).

B1: EHEE_rd4_0726 (parent)
chain: DIEITTNGEEDAKRVIKELQKRNLEYHIEVHGNQWVIKVR

Variants of: B1
Assay: folding stability dG (cDNA display proteolysis); higher = more stable
Conditions: PBS, room temperature

Folding stability dG [kcal/mol]: each site, then its substitutions
N7: P 1.36; Y 3.03; V 2.29; S 2.26; F 2.75; D 2.4; E 2.41; T 2.34; K 2.1; M 2.54; H 2.42
K13: F 2.58; D 1.72; E 1.97; V 2.12; T 1.96; G 1.76; S 1.93; W 3; L 2.76; Q 2.52
Y26: S 0.005; G 0.722; P 0.491; F 2.54
R14: E 2.04; K 2.43; S 1.82; F 2.24; V 2.04; T 1.84; Q 2; M 2.27
K38: A 1.32; T 2.77; Y 2.68; I 3.04; W 2.19; H 2.39
E18: K 1.81; V 2.32; L 2.65; M 2.86; G 1.69; P -0.054; Y 2.87; N 1.86; T 1.95; C 3.47; W 3.42
V39: T 1.12; S 0.617; I 2.58; A 1.06; Q -0.263; G 0.015; W 1.83; R -0.082; P -0.609
V15: H 1.23; A 1.38; Q 0.871; L 2.2; C 2.29; P -0.481
E29: D 1.56; M 1.93; F 2.27; L 1.91; A 1.71; Q 2; W 1.82; K 1.66; S 2.14; G 0.743
I4: T 0.528; W 1.99; F 2.12; M 1.23; Y 2.15; P 0.107; N -0.395; D -0.582; G -0.292; L 1.66; K 0.22; A 0.165; V 1.57
R40: N 1.97; L 2.7; P 1.89; D 1.59; M 2.58; G 1.81; F 2.73; C 2.97; V 2.65; E 1.73; H 2.74
L19: Y 0.81; A 0.721; F 1.38; K -0.438
Q20: W 1.79; D 2.29; Y 1.64; K 2.49; P -0.448; L 2.39
I28: T 1.09; A 1.04; V 2.53; Y 1.48; L 2.02
G8: H 2.1; V 1.92; I 1.95; K 2.02; S 3.27; D 2.64; F 1.97; L 1.83; C 2.33; Y 1.92; A 1.91; M 1.69
T5: E 1.66; N 1.75; Y 2.91; G 1.08; H 2.61; V 3.03; W 3.48; R 2.92; S 1.96; Q 2; D 1; C 2.86
V30: K 2.36; C 2.23; P 0.866; S 1.32; Y 2.12; I 2.72; Q 2.14; W 1.81
E25: L 2.6; M 2.52; N 2.28; Y 2.43; T 2.66; V 2.58; R 2.58; K 2.76
R22: I 1.54; M 2.66; E 1.49; Q 2.45; N 1.97; W 2.65; D 1.33; F 2.39
H27: G 1.59; E 2.66; N 2.17; K 2.46; F 2.57; Y 2.73; R 2.59; W 2.69
H31: S 2.12; A 1.88; P -0.6; I 2.72; N 2.42; T 2.17
E10: K 2.14; R 2.18; T 1.93; V 2.02; S 1.95; G 1.77
L24: F 1.81; E 1.01; D 0.415; S 1.04; R 1.65; W 2.05; T 1.14; N 0.681; Y 1.89; V 2.19
E9: M 2.12; N 1.36; F 2.52; R 2.19; P 2.46; G 1.76; Q 1.92; D 1.5; T 1.52; H 1.92
K17: Q 2.46; R 2.7; N 2.05; H 2.26; P 0.05; D 2.06
I2: A 1.53; Y 3.27; C 2.82; T 1.91; W 3.69; P 1.06; M 2.43
I16: L 1.83; E 1.34; F 1.02; N -0.729; S 0.705; W 0.844; K 0.043; V 1.94; A 1.54; M 2.04
V36: Y 1.7; F 1.85; K 1.67; N 0.793; T 1.77; A 0.418; C 1.43; M 1.37; H 1.47
D1: V 2.77; A 2.34; C 2.75; F 3.31; G 2.43; L 2.76; W 4.08; Y 3.38; S 2.39; Q 2.36; P 2.29; E 2.59
T6: E 0.908; A 2.62; I 3.08; F 2.32; V 3.55; P 1.51; Q 0.841; L 2.84; M 2.38; K 1.22
G32: M 1.43; P 1; R 1.09; D 1.85; L 1.38; S 1.21; V 1.08; W 0.99; T 1
N23: F 1.92; Y 1.67; Q 2.18; D 1.72; M 2.13; G 3.26; E 1.66; A 2.03
K21: W 2.04; S 2.3; N 2.21; A 2.54; R 2.75; D 2.3
N33: G 2.34; W 1.83; D 2.5; V 1.76; S 2.22; T 2.24
Q34: G 1.42; H 2.36; P -0.908; V 2.72; N 2.21; L 2.65; M 2.6; I 2.87; F 2.65; Y 2.5; K 2.56; D 1.68; A 1.92
E3: I 3.45; K 2.18; T 3.12; F 2.93; L 2.76; P 0.973; R 2.34
D11: L 2.12; A 2.73; Y 2.21; P 1.49; V 1.93; F 2.31; H 2.52; G 1.92; W 2.62; N 2.28
A12: E -0.056; S 1.28; R 1.17; P -0.076; H 1.01; N 0.444; T 1.74; W 1.51; M 2.51
I37: C 1.49; F 1.95; M 0.481
W35: H 0.787; Y 1.85; F 1.79; A 0.294; Q 0.512; L 1.53; I 2.06
